In a protein production outcome set (Wang et al. 2014):

Assay: label from the status in PepcDB records
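Further: failed if final PepcDB status was selected cloned or expressed and not failed if soluble or beyond.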

Sequence	protein production
MPQPTSQQRASVASSQSTQGAVGWSAATGWVVLFVAVALVVWFVSLDMRHLVGPDEGRYAEISREMFASGDWVTIRYNALKYFEKPPFHMWVTVVGYELFGLGEWQARLAVALSGLLGIGVSMMAARRWFGARAAAFTGLALLAAPMWSVAAHFNTLDMTLAGVMSCVLAFMLMGQHPDASVAARRGWMVACWAAMGVAILTKGLVGIALPGLVLVVYTLVTRDWGLWRRLHLALGVVVMLVITVPWFYLVSVRNPEFPNFFFIHEHWQRYTSNIHSRSGSVFYFLPLVIGGFLPWAGIFPKLWTAMRAPVEGTQARFRPALMAGIWAIAIFVFFSISRSKLPGYIVPVIPALGILAGVALDRLSPRSWGKQLIGMAIVAACGLLASPVVATLNANHIPNSFYRAYAVWVAVAFVVMLLGIAVARLLLRRGVLPSVAVYAMGMYLGFTVALLGHETVGRPASGADIAPQIAQKLTPEMPLYGVQMLDHTLPFYLRHPLMMVGQADELTFGATVEPQRVVPDVDSFTKLWKNGQPAMAVMSPDTYLALAPTLSMYVVARDWRRVVVANVASLAGPQ	failed
MITIKKQEIVKLEDVLHLYQAVGWTNYTHQTEMLEQALSHSLVIYLALDGDAVVGLIRLVGDGFSSVFVQDLIVLPSYQRQGIGSSLMKEALGNFKEAYQVQLATEETEKNVGFYRSMGFEILSTYDCTGMIWINREK	not failed
MGLEQAVVDFFNHMGLLNLTVGNVVMIIVGLTLVYLAIRYEMEPLLLLPIGISAVLVNLPLSHMANWPLAPQLPPEIQENIFATISYLSQQYGPPGLFDLIYYLLIKTEVVPLLIFFGLGAMTDFGPMIADPKTALLGAAAQIGVFVAMLVALALGFNLKEAASIGIIGGADGPTTIYLTTKLAPHILSATAVAAYSYMSLVPLIQPPVIKALTTPEERRIRMEQLRPVSKREKILFPIASMIVIGLLVPSAAPLIGMLMIGNLFRESGVVQRLSKAAQEELMNIVTIFLGLGIGSTMRAESFLTPKTLMILALGVVAFASATAGGVLFGKIMMKISGGKINPMIGAAGVSAVPMSARVVQRLASEEDPGNFILMHAMGPNVAGVIGTAVVAGVFLSALG	failed
WQGLSSKGDLPQVEITKAFFAKQADEVTLQQADVVLVLQQEDGWLYGERLRDGETGWFPEDFARFI	not failed
MPVGGLLPLFSSPGGGGLGSGLGGGLGGGRKGSGPAAFRLTEKFVLLLVFSAFITLCFGAIFFLPDSSKLLSGVLFHSNPALQPPAEHKPGLGARAEDAAEGRVRHREEGAPGDPGAGLEDNLARIRENHERALREAKETLQKLPEEIQRDILLEKEKVAQDQLRDKDLFRGLPKVDFLPPVGVENREPADATIREKRAKIKEMMTHAWNNYKRYAWGLNELKPISKEGHSSSLFGNIKGATIVDALDTLFIMGMKTEFQEAKSWIKKYLDFNVNAEVSVFEVNIRFVGGLLSAYYLSGEEIFRKKAVELGVKLLPAFHTPSGIPWALLNMKSGIGRNWPWASGGSSILAEFGTLHLEFMHLSHLSGDPVFAEKVMKIRTVLNKLDKPEGLYPNYLNPSSGQWGQHHVSVGGLGDSFYEYLLKAWLMSDKTDLEAKKMYFDAVQAIETHLIRKSSGGLTYIAEWKGGLLEHKMGHLTCFAGGMFALGADGAPEARAQHYLELGAEIARTCHESYNRTYVKLGPEAFRFDGGVEAIATRQNEKYYILRPEVIETYMYMWRLTHDPKYRTWAWEAVEALESHCRVNGGYSGLRDVYIARESYDDVQQSFFLAETLKYLYLIFSDDDLLPLEHWIFNTEAHPFPILREQKKEIDGKEK	not failed
MVFDAIVVTDLQGFIIDWNKGSETLYGYSKEQAIGQPVNMLHVPGDTEHITSEVISAVENQGKWTGEIRMLHKDGHIGWIESMCVPIYGENYQMVGALGINRDITKRKKELEHHHHHH	failed
MTHLKIFLLLIVCALSVLDGKAQTGIALTDELNGKRIGVIGDSYVRNHKEPFENTWHYKFAKKHGMEYFNYGKNGNSIAYSSPRWGKAMYLRYAEMADSLDYVIVIGGHNDAFKLDSIGGIDNFKDKMEILCKGLVEKYPTAKIFFFTRWNCKNFKGSDSEKVVDAMIEVCGNYSIPIFDCARKGSIYADNDTFRRIYFQKSKNNTDTAHLNSKGHDRFLKVAESFLLQYLEHHHHHH	failed
MGFSDAGIYLSDPNNLCQTELGFFHEPSLGFSDQSDPQNEFHITPPIYQELQDQDLEPKSQETNNCSRKEGATVKKEEEEEDDYCKTPTRSDQILSAMPRICPPAPRKPKRVPSRSLKVRNSYRSKRMIILNVSREIDCLFNPTSLCNKIKKARYI	failed
EDDYYYPSVKLEFVTVKAGTDGSIQTLIPDNGEALTVSKDRTGSAISPNTSRRVMSNYETLSNGHTATAVIYSLQSLVTPTPKPADDPTYRDGLKHDPVDVVSIWLGRGYLNMILNLKVNGGKQHVFGIVEDLSEFETNGTVNMLLYHDANGDEEYYNRRAYLSVPLDKYADAENPGQKITIKFKYYTYDKDGTAIESGKYCNPGFEYVPDKN	not failed
MTDQAVDTGGSQLPGNEQRPAAAPAPTVSQFLGRTRELKELRADIERAGLDTLSGRKAPRARVLLIAGRPGSGRTALAEELVRQVADRYRDGVLRARLTEPDGTPVPTERTARELLAALEVATPPGAAEDDLTEALREALADRRTLLLLDDVAAAEQVDALLPGTPDCLVVAVSEGPLTGIADVRPCTLGGLDTKSALELLGRLTGAVRITVDPRAAEGLVEECAGQPLALVLAGSWLAARPQAAVADLAKQLRSEGDEGPPTARLFRLAYAGLPATAQRILRLLSLAPAGLVDPHTASALAGCSVSAAHTTLDDFAALGLVRLLESPLPQYEVPGSLLPLLRALAESRERPAELQLARARMLERTVRLLQSCRAITETDSIEAREKLLGMPRTLRFPNPRAAADWLRVRQPALLAAARSAVADGELDTLARRLMSQLVRAMVAHFGTQASAPELYGIHRLVLDVAERRNLPREQAAALLNLADLDTRTGRTTEALARYRAALDAGREANDPYATGRAMESVGGAHQELGDYDRAADWYGRALAQRLARDERVDAARLYGRIATAHTYAGRYGEALRNWRSAVAGHRKNGDVAAQARALSELARVQEYAGRPEESLRTCQEAVEWARRADDVRLQAALQLRLADTLEHLGDPAAAKLHRGAAERMLGEELLESDSGAEQAPNACEIRSASSKD	failed
MKDETNIKTIALAIVLIAGYNVYTSQQDVKMFSLTLANIEALAMDETTQCDNANGYRRILEGDERIYDCCYLEKVGKLEHHHHHH	failed
MKQSKIIVAGIGPGSEQDITPAVLAAVREADVVVGYKYYFRFIRDFVRPDAECIDTGMKRERARAEQAFEYAEQGKTVCVISSGDAGIYGMTPLIYEMKRERQSNVEIIALPGI	failed
MKSWQIELLYDGECPLCLREVNFLRSKDQGRGLVNFVDIAQPDYNPLDHGGVSFEDAMARIHGVKADGSVVKNVAVFREVYEILGIGWLYAPTRWPIIGPLVDRIYDFWADLRLSWTGRSSLAEILAQREKGMCATDGCALPVTSGVEGKP	failed
MRYRNTALFVLLAAVWGSAFVAIKAGVGSPDAPGYFFDAPVLFAAVRYDIAAVLMFAYVAWATDRWRPRGRTEWLAVAVGSAFIIAGYHALLFLGQRGTTSAAAAVIVSLSPVLTTAFARALLADERLSVLGLAGMGVGFLGVVVLSQPTPADIAASRFEALVFAAALCFALGSVLTRRLDTDLPIETMEAWSMAGGALLMHALSLALGETVSGAPPTDALVALGYLAVVASAAGFLVYFDLLGRLGAIEINLVSYVVPVFAALVGVLLLGERVDTPTAAGFLLVFAGFVIIKRRAIRAEIADSYWP	failed
MPKVTVSIKVVPAVEDGRLHEVIDRAIEKISSWGMKYEVGPSNTTVEGEFEEIMDRVKELARYLEQFAKRFVLQLDIDYKAGGITIEEKVSKYR	not failed
MPTLGFRFRAHTDEQTLRALKAQLKLACEVYNTLRWADIYFYQRDGKGLTQTELRQLALDLRKQDDEYKQVYSQVVQQIADRYYEARQRFFEGLARFPKEKKPHKYYSLVYPQYGWKILQVREIRKGSKKKLITLKLSNLGVFKVIVHRDFPLDKVKRVVVKLTRSERIYITFVVEGYEFPKLPNTGKVVAIDVGVEKLLVTSDSEYFPNLRPLEKALWKVKHLHRELSRKKFLSNNWFKAKVKLARAYEHLKNLRTDLYMKLGKWFAEHYDVVVMEDIHVKQLIGKSLRSLRRRLSDVAFSELRDLIKYQLEKYGKKLILVNPAYTSKTCARCGYVKEDLSLSDRVFVCSNCGWIADRDYNASLNILRGSGSERSLVPVELRPLPVPALRYWHGRAVKLEHHHHHH	failed
MPALSGLHLAPSVASFLCLAWTVALYFAVKPLYQRLPRIWLSPAIVVPALTIPLLLITGIPYAEYVADTRWMVWLLGPATIAFAVPIYEHREIVRRHWIALALGVIAGMLVAMLSARLLAEAFHFSSEVSSSLMARSVSTPFAVAVVAHTGGSAELVSLFTVMTGLAGMIVGDTVLGLLRLRSPVAQGASLGTAAHGFGTARARQRHAEEGVVASLTMVLAGVLMVIAGPTLTGWVTALVG	failed
EELQALVDNIPAAIYHLDVSGQATIRFRPPAFLKTLVSEHAGTTRLNTLSMIHHDDRHMLSNAYSKLREAKHSLTLVYRIVTPEGKLHWIEDHMRSSFSDDGLFSGIDGILCEVT	not failed
MKWYTKYLQVYEKPFSEAPQEIVEEVRNKLKLLQSDNPLVTVSLIGYNEEKHLLASLWSLSEMKCKYPIEIIGTDNDSKDQTATIYEATGIPYVIEHQHSCGHARLCGLKRAKGKYHINIDSDTMYPPHYVETMVDALERPGIVAVSSLWSYIPDKEHSWVGLKIYEFIRDIHLWIQSIKRPELSVRGLVFAYRTDYARQVGIRTDIRRGEDGSLALRLKEYGNIYFIRKRKARAITGYGTISADGSLFNSFKVRAIYALKNIGRVFTRKKEYKDEDDNLIKSLEHHHHHH	not failed
MPMKSWIKTLLITLLAAALCLLFARVVLPPLLVQLIPPSWEGGPWFWVNLLLAGFLAGLVVAPLLRTRRYYPVPLLLLLSVLVVVGNWAQNRCNDAQLQAIEQLERRSASHSNLGISNEEPAPSAPVDVSATPGVWAHEQGDGYGYSCNRPGETQGFLMPQLMSFGINVLGLLLALLIGPGRRRAR	failed
MFRGVAPPPERSSTPLPPTMTTTPEPGAALLLLIVSQLPGIGPSRARALLNRFGATPALLEADYDALRQIPGIGETTARETAERLANPAWRDKAREKGENQLARAERLEASVITILDPAYPPLLKEIYDPPLLLFARGNPEALCVPSLAVVGTRKATAYGKQATEFICREMVNNGYAILSGLAYGIDMMAHRAAVESNGVTIAVLGCGIDRIYTDPAGRLWPRILERGAIVSEEWIGIKPEPGNFPRRNRLIAGLAQGTLIVESDIKGGSMITASYALEQNREVFAIPGSIFSGTSRGTNYLIQQNHAKPVFSAEDILAELNPAQHPALKTHPEASEPFDLNIEESCIVEALQSGAMHIDLIAEKTGLKIDALLVHLFELELKRIIEQEPGQIFRKRTP	failed
MERVAVVGVPMDLGANRRGVDMGPSALRYARLLEQLEDLGYTVEDLGDVPVSLARASRRRGRGLAYLEEIRAAALVLKERLAALPEGVFPIVLGGDHSLSMGSVAGAARGRRVGVVWVDAHADFNTPETSPSGNVHGMPLAVLSGLGHPRLTEVFRAVDPKDVVLVGVRSLDPGEKRLLKEAGVRVYTMHEVDRLGVARIAEEVLKHLQGLPLHVSLDADVLDPTLAPGVGTPVPGGLTYREAHLLMEILAESGRVQSLDLVEVNPILDERNRTAEMLVGLALSLLGKRIF	not failed
MMPNRNTNMLLAYKRLPNWTANSIPETLLNPHNTKVGTWEQLTVLSGKLDVYFFDKDDHVLEKLTFDKDSQMPFIQPQVCYKIEPASNDLECHLTLYCQKGDYFNKKYGMTKTHSEVLFSAPYLKENSKILDLGSGQGRNSLYLTMLGHDVTSVDTNEQSLIHLKNIANEENLPSKINWYDINTANLQETYDFILSTVVFMFLNRPVVPDIIKDMQKHTAIGGYNLIVCAMDTKSYPCPIPFPFTFKKGELKDYYKEWYLIKYNEDLGQLHKTDANGNRLQMQFATLLAKKVK	failed
